Test [1] addresses T1, human TIM3 on cells (transfected CHO cells, activated human T cells, Th1 cells, TILs) (human, UniProt Q8TDQ0 22-300).
T1 construct: also called hTIM3
Put plainly: flow cytometry, human TIM3 positive cells (activated human T cells per paragraph 648), GMFI (PE); EC50 unit inferred, unit taken from the axis label ug/mL. (In general: In flow cytometry, cells or beads pass a laser one at a time.)

Test [2] deals with T1, human TIM3 on cells (transfected CHO …). The test is described as follows: saturation binding of 125I-labeled antibody to CHO cells with human TIM3 (CHOhu TIM3 25K), table row Kd, column Total; the cell has no unit, nM is taken from the concentration axis.
Test [3] concerns the target T2, cynomolgus TIM3 on cells (transfected CHO cells, activated cyno T cells, cyno spleen) (cynomolgus).
T2 construct: also called cyno TIM3
T2 chain: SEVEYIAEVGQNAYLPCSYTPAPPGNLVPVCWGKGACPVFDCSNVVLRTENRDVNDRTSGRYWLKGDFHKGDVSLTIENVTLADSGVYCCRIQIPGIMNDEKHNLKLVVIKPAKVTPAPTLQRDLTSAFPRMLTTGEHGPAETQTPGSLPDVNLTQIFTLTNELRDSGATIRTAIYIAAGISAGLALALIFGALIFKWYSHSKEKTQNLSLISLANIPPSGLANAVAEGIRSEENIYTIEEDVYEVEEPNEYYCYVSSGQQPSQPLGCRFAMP
The test is described as follows: saturation binding of 125I-labeled antibody to CHO cells with cyno TIM3 (CHOcyno TIM3 25K), table row Kd, column Total; the cell has no unit, nM is taken from the concentration axis.

Test [4] addresses T1, human TIM3 on cells (transfected CHO …). Put plainly: saturation binding of 125I-labeled antibody to CHO cells with human TIM3 (CHOhu TIM3 25K), table row Kd, column Specific Binding; the cell has no unit, nM is taken from the concentration axis and the box below.
In test [5] the target is T3, Human TIM3-IgV (Example 22) (human, UniProt Q8TDQ0 22-130).
T3 construct: also called hTim3-IgV; hTIM3-IgV
Put plainly: SPR Biacore T200, 37 C; antibody captured on anti-hFc chip, TIM3 protein as analyte, single cycle kinetics, 1:1 model.

Substitutions are numbered along the chain they refer to. Names and notes keep the numbering of the source.

B1: anti-TIM3 monoclonal antibody 13A3 (antibody, V domains shown)
VH: QLQLQESGPGLVKPSETLSLTCTVSGGSISSRSYYWGWIRQPPGKGLEWIGSIYYSGFTYYNPSLKSRVTISVDTSKNQFSLKLSSVTAADTAVYYCATGGPYGDYAHWFDPWGQGTLVTVSS
VL: not shown
notes: also called 13A3-g4
For the molecule B1, in test [1], the 50% effective concentration (EC50) was found to be 0.0116 µg/mL.

B2: TIM3.18·IgG1.3 (antibody, V domains shown)
VH: B1 VH with N62Q, D111E
VL: not shown
notes: also called TIM3.18 (13A3) IgG1.3f (N60Q/D101E)
As to B2, the dissociation constant Kd amounted to 0.278 nM in test [2], 0.581 nM in test [3] and 0.262 nM in test [4].

B3: Tim3.18 (13A3 VH-N60Q-D101E), constant region not stated (antibody, V domains shown)
VH: B1 VH with N62Q, D111E
VL: not shown
On to B3, for which binding in test [5] was characterised by a dissociation constant (Kd) of 7.1 nM.

B4: anti-TIM3 monoclonal antibody 23B3 (antibody, V domains shown)
VH: QVQLVGSGGGLVKPGGSLRLSCAASGFTFSDYYMSWIRQAPGKGLEWVSFISGSGSIIYYADSVKGRFTISRDNAKNSLDLQMNSLRAEDTAVYYCARDGMVRGMNFYGMDVWGQGTTVTVSS
VL: not shown
In test [1], B4 yielded an EC50 of 0.0229 µg/mL.

B5: TIM3.25 (23B3 VH-G6E-D79Y) (antibody, V domains shown)
VH: B4 VH with G6E, D80Y
VL: not shown
On to B5, for which, in test [5], binding was characterised by a dissociation constant (Kd) of 2.2 nM, the off-rate (koff) was 0.0013 s⁻¹ and the kon is 600000 M⁻¹ s⁻¹.

B6: anti-TIM3 monoclonal antibody 14H7 (antibody, V domains shown)
VH: QVHLVESGGGLVKPGGSLRLSCTAFSDYYMSWIRQAPGKGLEWLSYISNSGSIIYYADSVKGRFTISRDNAKNSVYLQMNSLRAEDTAVYYCARGRIGFFDYWGPGTLVTVSS
VL: not shown
As for B6, the midpoint of the response in test [1], the EC50, lay at 0.0139 µg/mL.

B7: TIM3.24 (14H7) (antibody, V domains shown)
VH: B6 VH
VL: not shown
notes: also called 14H7/TIM3.24
In the case of B7, in test [5], the Kd amounted to 14 nM, the off-rate (koff) turned out to be 0.011 s⁻¹ and the on-rate (kon) came to 780000 M⁻¹ s⁻¹.

The term EC50 denotes the concentration that produces a half-maximal response. The Kd is the constant that tells how readily two partners part at equilibrium. By koff is commonly meant the rate constant with which the complex falls apart. What is called kon is the rate constant with which the complex forms. Higher therefore signals fast association.
